Among the data in patent publication US20110287963A1 are MBC (minimum bacteriocidal concentration) on ampicillin, fold over the α-Jun negative control values, retold here.

Assay [1] deals with GCN4 leucine zipper (wild-type) fused to the α fragment of β-lactamase (E. coli (plasmid pBR322)) (UniProt P03069). As to the kind of experiment: cell-based or functional assay.
Assay [2] addresses GCN4-PP, double proline mutant of the GCN4 leucine zipper, fused to the α fragment of β-lactamase (E. coli (plasmid pBR322)) (UniProt P03069). As to the kind of experiment: cell-based or functional assay.

Turning to “scFv-GCN4 fused to the ω fragment of β-lactamase (pDMB-P1-ωBLA construct)”, the MBC (minimum bacteriocidal concentration) on ampicillin, fold over the α-Jun negative control is 2 fold in assay [1] and 16 fold in assay [2].
